Reference: article PMC12595441, “Glycosaminoglycans activate peptidylarginine deiminase 4 by enhancing calcium affinity” (Proceedings of the National Academy of Sciences of the …, 2025)

Tests used:
heparin [1] = assay: SPR; details: immobilized heparin
heparin [2] = assay: heparin activation assay with BAEE substrate, Hill equation fit (apparent KD); details: 0.1 mM Ca2+
heparin [3] = assay: heparin column chromatography (Poros heparin), salt gradient; details: gradient of 2 M NaCl; parent: est. 31 min; read off a plot
[4] = target: the molecule itself; assay: SEC; analytical SEC in the presence of 5 µM heparin, Superdex 200 Increase 3.2/300, protein at 0.15 µM, 50 mM Tris pH 7.5, 300 mM NaCl, 0.1 mM CaCl2, 0.05% Tween20, 0.25 mM DTT; tryptophan fluorescence
[5] = target: the molecule itself; assay: SEC; analytical SEC without heparin, Superdex 200 Increase 3.2/300, protein at 0.15 µM, 50 mM Tris pH 7.5, 300 mM NaCl, 0.1 mM CaCl2, 0.05% Tween20, 0.25 mM DTT; tryptophan fluorescence; compared with HMW calibration standards

Molecule	Kd (heparin [1]) [nM]	koff (heparin [1])	kon (× 10^4 M^-1s^-1) (heparin [1])	Kd (heparin [2]) [nM]	response (heparin [1]) [RU]	other: peak elution time from heparin column (heparin [3]) [min]	stoichiometry N [4]	stoichiometry N [5]	binding result [4]
peptidylarginine deiminase 4 (PAD4), recombinant human, wild type (from UniProt Q9UM07) K126S; K128S; R131S; K134S; R137S	13.5	3.9 × 10^-4	3.1	7.5	–	–	–	–	–
peptidylarginine deiminase 4 (PAD4), recombinant human, wild type (from UniProt Q9UM07) R123S; K126S; K128S	14.4	4.6 × 10^-4	3	6.2	328	29	–	–	–
peptidylarginine deiminase 4 (PAD4), recombinant human, wild type (from UniProt Q9UM07) Y435A	16.6	4.5 × 10^-4	2.8	13.3	786	–	–	–	–
PAD4^59/60/61/81/91 (K59S K60S K61S K81S K91S) (enzyme, human, UniProt Q9UM07 1-663, looked up, Full length human PAD4 (GenBank NM_012387) with K59S K60S K61S K81S K91S; source: E. coli BL21(DE3), purified (HisTrap FF, HiTrap Heparin HP, Superdex 200 SEC)) MAQGTLIRVTPEQPTHAVCVLGTLTQLDICSSAPEDCTSFSINASPGVVVDIAHGPPASSSSTGSSTWPLDPGVEVTLTMSVASGSTGDQSVQISYYGPKTPPVKALLYLTGVEISLCADITRTGKVKPTRAVKDQRTWTWGPCGQGAILLVNCDRDNLESSAMDCEDDEVLDSEDLQDMSLMTLSTKTPKDFFTNHTLVLHVARSEMDKVRVFQATRGKLSSKCSVVLGPKWPSHYLMVPGGKHNMDFYVEALAFPDTDFPGLITLTISLLDTSNLELPEAVVFQDSVVFRVAPWIMTPNTQPPQEVYACSIFENEDFLKSVTTLAMKAKCKLTICPEEENMDDQWMQDEMEIGYIQAPHKTLPVVFDSPRNRGLKEFPIKRVMGPDFGYVTRGPQTGGISGLDSFGNLEVSPPVTVRGKEYPLGRILFGDSCYPSNDSRQMHQALQDFLSAQQVQAPVKLYSDWLSVGHVDEFLSFVPAPDRKGFRLLLASPRSCYKLFQEQQNEGHGEALLFEGIKKKKQQKIKNILSNKTLREHNSFVERCIDWNRELLKRELGLAESDIIDIPQLFKLKEFSKAEAFFPNMVNMLVLGKHLGIPKPFGPVINGRCCLEEKVCSLLEPLGLQCTFINDFFTYHIRHGEVHCGTNVRRKPFSFKWWNMVP	–	–	–	–	–	–	≤ 4	4	–
PAD4^123/126/128 (R123S K126S K128S) (enzyme, human, UniProt Q9UM07 1-663, looked up, Full length human PAD4 (GenBank NM_012387) with R123S K126S K128S; source: E. coli BL21(DE3), purified (HisTrap FF, HiTrap Heparin HP, Superdex 200 SEC)) MAQGTLIRVTPEQPTHAVCVLGTLTQLDICSSAPEDCTSFSINASPGVVVDIAHGPPAKKKSTGSSTWPLDPGVEVTLTMKVASGSTGDQKVQISYYGPKTPPVKALLYLTGVEISLCADITSTGSVSPTRAVKDQRTWTWGPCGQGAILLVNCDRDNLESSAMDCEDDEVLDSEDLQDMSLMTLSTKTPKDFFTNHTLVLHVARSEMDKVRVFQATRGKLSSKCSVVLGPKWPSHYLMVPGGKHNMDFYVEALAFPDTDFPGLITLTISLLDTSNLELPEAVVFQDSVVFRVAPWIMTPNTQPPQEVYACSIFENEDFLKSVTTLAMKAKCKLTICPEEENMDDQWMQDEMEIGYIQAPHKTLPVVFDSPRNRGLKEFPIKRVMGPDFGYVTRGPQTGGISGLDSFGNLEVSPPVTVRGKEYPLGRILFGDSCYPSNDSRQMHQALQDFLSAQQVQAPVKLYSDWLSVGHVDEFLSFVPAPDRKGFRLLLASPRSCYKLFQEQQNEGHGEALLFEGIKKKKQQKIKNILSNKTLREHNSFVERCIDWNRELLKRELGLAESDIIDIPQLFKLKEFSKAEAFFPNMVNMLVLGKHLGIPKPFGPVINGRCCLEEKVCSLLEPLGLQCTFINDFFTYHIRHGEVHCGTNVRRKPFSFKWWNMVP	–	–	–	–	–	–	–	–	binds
PAD4^126/128/131/134/137 (K126S K128S R131S K134S R137S) (enzyme, human, UniProt Q9UM07 1-663, looked up, Full length human PAD4 (GenBank NM_012387) with K126S K128S R131S K134S R137S; source: E. coli BL21(DE3), purified (HisTrap FF, HiTrap Heparin HP, Superdex 200 SEC)) MAQGTLIRVTPEQPTHAVCVLGTLTQLDICSSAPEDCTSFSINASPGVVVDIAHGPPAKKKSTGSSTWPLDPGVEVTLTMKVASGSTGDQKVQISYYGPKTPPVKALLYLTGVEISLCADITRTGSVSPTSAVSDQSTWTWGPCGQGAILLVNCDRDNLESSAMDCEDDEVLDSEDLQDMSLMTLSTKTPKDFFTNHTLVLHVARSEMDKVRVFQATRGKLSSKCSVVLGPKWPSHYLMVPGGKHNMDFYVEALAFPDTDFPGLITLTISLLDTSNLELPEAVVFQDSVVFRVAPWIMTPNTQPPQEVYACSIFENEDFLKSVTTLAMKAKCKLTICPEEENMDDQWMQDEMEIGYIQAPHKTLPVVFDSPRNRGLKEFPIKRVMGPDFGYVTRGPQTGGISGLDSFGNLEVSPPVTVRGKEYPLGRILFGDSCYPSNDSRQMHQALQDFLSAQQVQAPVKLYSDWLSVGHVDEFLSFVPAPDRKGFRLLLASPRSCYKLFQEQQNEGHGEALLFEGIKKKKQQKIKNILSNKTLREHNSFVERCIDWNRELLKRELGLAESDIIDIPQLFKLKEFSKAEAFFPNMVNMLVLGKHLGIPKPFGPVINGRCCLEEKVCSLLEPLGLQCTFINDFFTYHIRHGEVHCGTNVRRKPFSFKWWNMVP	–	–	–	–	–	–	≤ 4	4	–

Now from value to molecule, other results behind:

Kd (heparin [1]) [nM]	koff (heparin [1])	kon (× 10^4 M^-1s^-1) (heparin [1])	Kd (heparin [2]) [nM]	response (heparin [1]) [RU]	other: peak elution time from heparin column (heparin [3]) [min]	Molecule	stoichiometry N [4]	stoichiometry N [5]	binding result [4]
11.8	6.7 × 10^-4	5.6	6.1	–	–	peptidylarginine deiminase 4 (PAD4), recombinant human, wild type (from UniProt Q9UM07) K59S; K60S; K61S; K81S; K91S	–	–	–
15.7	4.2 × 10^-4	2.6	13.5	659	–	peptidylarginine deiminase 4 (PAD4), recombinant human, wild type (from UniProt Q9UM07) R8E	–	–	–
15.5	4.5 × 10^-4	3	–	802	–	peptidylarginine deiminase 4 (PAD4), recombinant human, wild type (from UniProt Q9UM07) R8E; Y435A	–	–	–
